According to the supplement of paper PMC10724198:
± gives the standard deviation of the averaged measurements.

How the values were obtained:
[1] = test system: Saccharomyces cerevisiae; assay: protein stability index of tFT-peptide fusion (C-terminal peptide) (PSI (0-1 scale)); higher = more stable (slower turnover)
Description: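 MPS profiling in S. cerevisiae of the tFT-X12 degron library: putative degron peptides plus stable controls, 12 aa, fused to the C-terminus of a sfGFP-mCherry timer. Cells are FACS-sorted into 8 mCherry/sfGFP bins and deep-sequenced. PSI runs from 0 (unstable) to 1 (stable). Backgrounds are wild type, das1Δ and doa10Δ at 30 °C, and wild type, das1Δ, cdc34-1 and cdc53-1 at 37 °C; 2-3 technical replicates each.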

[2] = test system: Saccharomyces cerevisiae; assay: as above; details: genetic background: wild type; temperature: 30 C
[3] = genetic background: cdc34-1, temperature: 37 C
[4] = genetic background: cdc53-1, temperature: 37 C
[5] = genetic background: das1 deletion, temperature: 30 C
[6] = genetic background: das1 deletion, temperature: 37 C
[7] = genetic background: doa10 deletion, temperature: 30 C
[8] = genetic background: wild type, temperature: 30 C
[9] = genetic background: wild type, temperature: 37 C
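Note: PSI is a weighted mean of sequencing reads over stability bins, variants kept only with over 10 reads, mCherry proximal and sfGFP distal, peptide attached via GGGS linker.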

Sequence	protein stability index [1, 3]	protein stability index [1, 4]	protein stability index [1, 5]	protein stability index [1, 6]	protein stability index [1, 7]	protein stability index [1, 8]	protein stability index [1, 9]	protein stability index [2]
VFLCFSWHFFLF	0.4543 ± 0.0039	0.591 ± 0.035	0.411 ± 0.037	0.559 ± 0.036	0.297 ± 0.0049	0.304 ± 0.029	0.467 ± 0.011	0.405 ± 0.012
LGLCFFFYSLHS	0.539 ± 0.064	0.58 ± 0.037	0.411 ± 0.041	0.586 ± 0.013	0.37 ± 0.0054	0.401 ± 0.016	0.599 ± 0.057	0.462 ± 0.0096
ILISVNRVVLYC	0.364 ± 0.016	0.4123 ± 0.0011	0.289 ± 0.027	0.461 ± 0.011	0.115 ± 0.014	0.14 ± 0.017	0.1901 ± 0.00075	0.2171 ± 0.00013
LLISPFLFLLVC	0.0704 ± 0.043	0.0371 ± 0.002	0.0907 ± 0.02	0.0981 ± 0.022	0.0594 ± 0.018	0.0605 ± 0.014	0.0515 ± 0.00088	0.0803 ± 0.024
VMLIRVSRGIKC	0.359 ± 0.044	0.463 ± 0.13	0.293 ± 0.024	0.4846 ± 0.0047	0.242 ± 0.0097	0.29 ± 0.038	0.473 ± 0.0067	0.41 ± 0.0097
TIRKCIIKWIKI	0.591 ± 0.032	0.581 ± 0.031	0.475 ± 0.021	0.596 ± 0.029	0.174 ± 0.0094	0.189 ± 0.036	0.398 ± 0.024	0.368 ± 0.016
WFVFVFCSPRSS	0.547 ± 0.048	0.618 ± 0.0098	0.4 ± 0.03	0.65 ± 0.027	0.394 ± 0.012	0.406 ± 0.017	0.568 ± 0.0097	0.5 ± 0.029
GHYQGVCHRRIC	0.657 ± 0.026	0.725 ± 0.019	0.64 ± 0.028	0.7667 ± 0.0054	0.18 ± 0.016	0.176 ± 0.024	0.368 ± 0.033	0.34 ± 0.015
WACAWRGMVKVG	0.202 ± 0.021	0.245 ± 0.0068	0.232 ± 0.034	0.38 ± 0.0041	0.0812 ± 0.0095	0.0897 ± 0.021	0.0811 ± 0.0041	0.156 ± 0.018
CFFPLFLCTAFC	0.465 ± 0.027	0.4713 ± 0.0024	0.394 ± 0.023	0.513 ± 0.011	0.387 ± 0.0062	0.39 ± 0.0053	0.492 ± 0.022	0.425 ± 0.017
LFFASFLLIGPF	0.4091 ± 0.0033	0.4803 ± 0.003	0.375 ± 0.039	0.499 ± 0.014	0.354 ± 0.03	0.321 ± 0.037	0.483 ± 0.041	0.393 ± 0.0098
VVGFVFSCWWSW	0.433 ± 0.031	0.4646 ± 0.00097	0.367 ± 0.039	0.506 ± 0.013	0.365 ± 0.015	0.372 ± 0.045	0.46 ± 0.014	0.5003 ± 0.0031
LGATYSVQLYVS	0.336 ± 0.044	0.577 ± 0.022	0.539 ± 0.038	0.621 ± 0.013	0.0746 ± 0.012	0.0832 ± 0.015	0.0856 ± 0.005	0.131 ± 0.0029
GSWGGGWRYVGW	0.761 ± 0.037	0.792 ± 0.016	0.663 ± 0.012	0.7947 ± 0.0036	0.664 ± 0.037	0.685 ± 0.023	0.759 ± 0.011	0.734 ± 0.033
FFCFFWLFHWFG	0.512 ± 0.012	0.566 ± 0.022	0.485 ± 0.016	0.5875 ± 0.0025	0.4643 ± 0.0022	0.451 ± 0.015	0.5356 ± 0.0044	0.443 ± 0.028
SRGLVPMANRYC	0.659 ± 0.07	0.7383 ± 0.0028	0.656 ± 0.03	0.741 ± 0.018	0.142 ± 0.0075	0.16 ± 0.02	0.42 ± 0.014	0.298 ± 0.045
AQLVYVITAVRT	0.452 ± 0.017	0.458 ± 0.024	0.333 ± 0.031	0.569 ± 0.026	0.291 ± 0.025	0.315 ± 0.019	0.507 ± 0.029	0.42 ± 0.029
GGGGGGGGGGVG	0.313 ± 0.019	0.427 ± 0.044	0.397 ± 0.014	0.457 ± 0.057	0.391 ± 0.004	0.387 ± 0.024	0.446 ± 0.03	0.514 ± 0.045
LVMYRSALIRGH	0.526 ± 0.039	0.529 ± 0.042	0.445 ± 0.0092	0.5693 ± 0.0033	0.3624 ± 0.00052	0.396 ± 0.03	0.525 ± 0.01	0.462 ± 0.05
GVWSLDWFLLVW	0.0785 ± 0.021	0.187 ± 0.026	0.158 ± 0.016	0.223 ± 0.0023	0.134 ± 0.016	0.15 ± 0.023	0.217 ± 0.017	0.24 ± 0.016

Sequence	protein stability index [1, 3]	protein stability index [1, 4]	protein stability index [1, 5]	protein stability index [1, 6]	protein stability index [1, 7]	protein stability index [1, 8]	protein stability index [1, 9]	protein stability index [2]
SLSCYSFFVLAL	0.513 ± 0.035	0.543 ± 0.027	0.404 ± 0.03	0.534 ± 0.0054	0.391 ± 0.014	0.401 ± 0.025	0.51315 ± 0.00015	0.482 ± 0.0072
GCRLRHRLVRIV	0.517 ± 0.038	0.646 ± 0.052	0.604 ± 0.035	0.6902 ± 0.0065	0.109 ± 0.048	0.119 ± 0.044	0.201 ± 0.011	0.2105 ± 0.0013
WLFTSVTVFTFL	0.21366 ± 0.00013	0.299 ± 0.02	0.221 ± 0.023	0.421 ± 0.021	0.181 ± 0.0045	0.196 ± 0.013	0.347 ± 0.016	0.296 ± 0.045
LIFFFCSWVFRF	0.3037 ± 0.00048	0.291 ± 0.032	0.402 ± 0.061	0.464 ± 0.031	0.327 ± 0.044	0.272 ± 0.038	0.365 ± 0.0071	0.377 ± 0.012
WFLLILFSAFAV	0.433 ± 0.021	0.463 ± 0.036	0.352 ± 0.022	0.501 ± 0.0097	0.314 ± 0.0041	0.3465 ± 0.003	0.471 ± 0.0049	0.436 ± 0.0045
PLLPCRPILFLL	0.559 ± 0.072	0.627 ± 0.027	0.558 ± 0.028	0.6615 ± 0.0026	0.125 ± 0.0042	0.117 ± 0.014	0.182 ± 0.038	0.197 ± 0.043
FSYFFIFFYMVC	0.207 ± 0.029	0.257 ± 0.042	0.234 ± 0.043	0.378 ± 0.038	0.152 ± 0.01	0.147 ± 0.035	0.228 ± 0.0028	0.238 ± 0.0085
GVSFLFVGVSLV	0.469 ± 0.065	0.499 ± 0.01	0.34 ± 0.031	0.5503 ± 0.0019	0.3088 ± 0.00076	0.354 ± 0.015	0.523 ± 0.019	0.419 ± 0.041
MIQPRLANIIIS	0.8517 ± 0.0056	0.864 ± 0.017	0.683 ± 0.018	0.833 ± 0.015	0.713 ± 0.024	0.6987 ± 0.0051	0.779 ± 0.017	0.753 ± 0.018
RLGIRCLYLRFI	0.406 ± 0.1	0.422 ± 0.052	0.482 ± 0.059	0.5974 ± 0.0019	0.25 ± 0.015	0.216 ± 0.035	0.363 ± 0.016	0.306 ± 0.011
SLLLLSLCRFVG	0.626 ± 0.022	0.686 ± 0.017	0.6 ± 0.012	0.702 ± 0.023	0.194 ± 0.02	0.232 ± 0.036	0.384 ± 0.013	0.372 ± 0.026
VSDLYLSLVRVV	0.59 ± 0.032	0.593 ± 0.011	0.46 ± 0.034	0.604 ± 0.009	0.256 ± 0.0031	0.31 ± 0.029	0.492 ± 0.017	0.45 ± 0.078
IEVGVAILLLGE	0.646 ± 0.042	0.668 ± 0.0081	0.551 ± 0.03	0.6842 ± 0.0029	0.5066 ± 0.0028	0.529 ± 0.01	0.6791 ± 0.0027	0.514 ± 0.12
VFSFWVLCEVSV	0.0333 ± 0.0097	0.0546 ± 0.015	0.0315 ± 0.0099	0.0841 ± 0.013	0.0219 ± 0.0031	0.0221 ± 0.0057	0.072 ± 0.02	0.04525 ± 0.0004
DFIVVIRFIQII	0.268 ± 0.012	0.376 ± 0.009	0.266 ± 0.023	0.3971 ± 0.0035	0.1447 ± 0.001	0.154 ± 0.027	0.235 ± 0.0043	0.232 ± 0.017
LPASLSLWPLLC	0.4736 ± 0.0023	0.604 ± 0.025	0.537 ± 0.019	0.668 ± 0.012	0.0836 ± 0.017	0.0983 ± 0.017	0.127 ± 0.015	0.1137 ± 0.0011
HILRLVYFIVYE	0.402 ± 0.01	0.533 ± 0.028	0.316 ± 0.044	0.504 ± 0.0089	0.264 ± 0.01	0.293 ± 0.015	0.554 ± 0.017	0.4189 ± 0.003
LASFCSVCIFIS	0.224 ± 0.0054	0.31 ± 0.014	0.238 ± 0.017	0.429 ± 0.0071	0.099 ± 0.0025	0.127 ± 0.033	0.17 ± 0.012	0.163 ± 0.029
EKIIVAVLFVVP	0.354 ± 0.032	0.482 ± 0.054	0.305 ± 0.02	0.504 ± 0.012	0.281 ± 0.0051	0.302 ± 0.02	0.439 ± 0.02	0.437 ± 0.043
